In patent US12247238B2, “Mogroside biocatalysis methods and products” (The Coca-Cola Company, priority 2019, dated 2025):
Where a chain is given by its changes, count along the chain named. Names may count otherwise. “Also recorded” adds a separate entry of the source. Blank lines part the entries; values can stand above or below the molecule they belong to.

Assays:
Assay type in all cases: biochemical
[1] = Standard mogroside biocatalytic assay, mogroside V substrate; details: for Initial Rate / Reaction Progress / Sia 1: Mogroside hydrolysis; for Initial Rate / Reaction Progress / Sia 1 / Sia:MogIII / Sia:MogIV: 37 C., pH 5.6; for Reaction Progress / Sia 1 / Sia:MogIII / Sia:MogIV: 72 h; for Sia:MogIII / Sia:MogIV: product ratio
Method: (§1) Standard mogroside biocatalytic assays were performed at 37° C. in 500 μL, volume 50 mM sodium citrate buffer pH 5.6, 10 mM magnesium chloride, 10 mM substrate (typically mogroside V) and 50 μg mL−1 enzyme, and incubated for 24-96 hours. Mogroside glucosidation activity was detected by direct HPLC detection and quantification of mogroside V substrate and mogroside products from filtered reaction supernatant, and quantified by comparison with standard curves based on peak.
(§2) Mogroside compounds HPLC separation and quantification was conducted using a Synergi Hydro-RP column (250 mm×4.6 mm or 150 mm×4.6 mm) with an initial flow rate of 1 mL min−1 and a water: acetonitrile gradient as per below, similar to that described by Zhou et al. (WO 2014/150127). Compounds were detected at 210 nm using diode array detector (Agilent Technologies, USA), and calibration curves established using standard curves from 0.1 to 10 mM.
(§3) Cells expressing enzyme variants grown in buffered minimal medium were induced for 72 hr with 1% methanol (refreshed every 24 hr), the culture supernatant harvested and assayed for standard ONPG activity over 30 minutes and mogroside V activity at pH 5.6, 37° C. for 72 hrs. The resultant activity data (Table 2) identified E200 and D258 as the likely catalytic pair for acid/base and nucleophilic attack of mogroside V by the A. oryzae β-glucosidase enzyme.

[2] = Reaction distributions (product ratios) of beta-galactosidase preparations; details: 12.8 g/L MG-V (10 mM), pH 6.0, 50° C., 96 hrs
Method: as §2
Reaction distributions were evaluated for G5160 beta-galactosidase (Sigma), Maxilact A4 beta-galactosidase (DSM) and Pp-Aspergillus oryzae beta-galactosidase.
Using 12.8 g/L MG-V (10 mM) at pH 6.0, 50° C. for 96 hrs reaction time

[3] = β-galactosidase ONPG activity assay; details: oNPG substrate, over 30 minutes
Method: Standard β-galactosidase assays were performed at room temperature using o-nitrophenyl-β-D-galactopyranoside (ONPG, Sigma) as a substrate in […] with detection of o-nitrophenol release at 420 nm (UV-Spectra Max Spectrophotometer, Molecular Devices, USA). A typical reaction contained 50 mM sodium citrate buffer pH 5.6, 10 mM magnesium chloride and 100 mM potassium chloride with 2 mM ONPG and the desired amount of enzyme (usually […]). Partially purified AoBG (Sigma G5160, USA) was used as a positive control at a final concentration of 1 U mL−1. Vmax was calculated using the SpectraMax Plus software (Molecular Devices, USA) and when required kinetics were determined by varying the concentration of substrate and kinetic determinants calculated using Hyper™ (J. S. Easterby, Liverpool University).
as §3

[4] = RRK loop library variant second pass evaluation, Siamenoside I substrate; details: Siamenoside I as substrate
Method: (§4) Single transformant colonies from 3.2.2 were inoculated into 2mL BMGY in 48 well-growth blocks and grown overnight at 30° C., 1000 rpm in a benchtop incubator before dilution of cell culture from each well into 2 mL BMM medium an equivalent well in a fresh growth block, to an OD600 nm of 1.0, and growing the induction growth blocks at 30° C., 1000 rpm in a benchtop incubator for 72 hours. The cells were then harvested (5000 g, 10 minutes) and the supernatant from each well concentrated using a 30 kDa cut-off Amicon Ultra 0.5 mL concentrator column (10 000 g, 5 minutes). Enzymatic assays were setup in fresh growth blocks to a total volume of 500 μL, comprising with 50 mM sodium citrate buffer pH 5.6, 10 mM magnesium chloride, 10 mM mogroside V and 50 μL concentrated supernatant (˜35 μg mL−1 protein). Assays were incubated without shaking at 37° C. for 72 hours. 190 μL of reaction was combined with 10 μL 10 mM internal standard (N-Boc-) and 5 μL analyzed by HPLC.
as §2, with “mM. 150 mm column retention times in minutes: mog V 9.5, sia 1 10.6, mog IVa 10.5, mog IV 11.3, mog III 12.6, mogl I 13.2. 250 mm column retention times: mog V 12.3, sia 1 13.2, mog IVa 13.5, mog IV 14.1, mog III 15.3, mog II 16.2.” for “mM.”
(§5) 48 variants were selected based on Siamenoside I yields of >70% by peak area for a second pass evaluation. The cell lines were regrown and assayed with both mogroside V and Siamenoside I as substrates, independently.

[5] = RRK loop library variant screening, mogroside V substrate; details: second pass evaluation, 10 mM mogroside V, pH 5.6, 37° C., 72 hours
Method: as §4
as §2, with “mM. 150 mm column retention times in minutes: mog V 9.5, sia 1 10.6, mog IVa 10.5, mog IV 11.3, mog III 12.6, mogl I 13.2. 250 mm column retention times: mog V 12.3, sia 1 13.2, mog IVa 13.5, mog IV 14.1, mog III 15.3, mog II 16.2.” for “mM.”
Therefore, variants showing improved function were chosen if they surpassed a yield value >70% by peak area during this first pass evolution.
as §5

[6] = Mogroside biocatalytic assay, equimolar MogV:SiaI substrate; details: comparison of wildtype and variant
Method: as §1, §2

- Mog III [2]: 12%
- Mog IV [2]: 21%
- Mog V [2]: 24%
- Siam I [2]: 43%
B1: PpAoBG: same acid lactase/β-Galactosidase enzyme as the Maxilact A4, expressed in a Pichia pistoris system (protein, UniProt Q2UCU3 19-1005, looked up)
Beta-galactosidase A: ASIKHRLNGFTILEHPDPAKRDLLQDIVTWDDKSLFINGERIMLFSGEVHPFRLPVPSLWLDIFHKIRALGFNCVSFYIDWALLEGKPGDYRAEGIFALEPFFDAAKEAGIYLIARPGSYINAEVSGGGFPGWLQRVNGTLRSSDEPFLKATDNYIANAAAAVAKAQITNGGPVILYQPENEYSGGCCGVKYPDADYMQYVMDQARKADIVVPFISNDASPSGHNAPGSGTGAVDIYGHDSYPLGFDCANPSVWPEGKLPDNFRTLHLEQSPSTPYSLLEFQAGAFDPWGGPGFEKCYALVNHEFSRVFYRNDLSFGVSTFNLYMTFGGTNWGNLGHPGGYTSYDYGSPITETRNVTREKYSDIKLLANFVKASPSYLTATPRNLTTGVYTDTSDLAVTPLIGDSPGSFFVVRHTDYSSQESTSYKLKLPTSAGNLTIPQLEGTLSLNGRDSKIHVVDYNVSGTNIIYSTAEVFTWKKFDGNKVLVLYGGPKEHHELAIASKSNVTIIEGSDSGIVSTRKGSSVIIGWDVSSTRRIVQVGDLRVFLLDRNSAYNYWVPELPTEGTSPGFSTSKTTASSIIVKAGYLLRGAHLDGADLHLTADFNATTPIEVIGAPTGAKNLFVNGEKASHTVDKNGIWSSEVKYAAPEIKLPGLKDLDWKYLDTLPEIKSSYDDSAWVSADLPKTKNTHRPLDTPTSLYSSDYGFHTGYLIYRGHFVANGKESEFFIRTQGGSAFGSSVWLNETYLGSWTGADYAMDGNSTYKLSQLESGKNYVITVVIDNLGLDENWTVGEETMKNPRGILSYKLSGQDASAITWKLTGNLGGEDYQDKVRGPLNEGGLYAERQGFHQPQPPSESWESGSPLEGLSKPGIGFYTAQFDLDLPKGWDVPLYFNFGNNTQAARAQLYVNGYQYGKFTGNVGPQTSFPVPEGILNYRGTNYVALSLWALESDGAKLGSFELSYTTPVLTGYGNVESPEQPKYEQRKGAY
modifications: expressed in Pichia pastoris
notes: same acid lactase/β-Galactosidase enzyme as the Maxilact A4, expressed in a Pichia pistoris system
- Siamenoside I produced ([1]; mogV assay, HPLC analysis, 37° C., after 48 hrs): ~32%

- oNPG [3]: INACTIVE
B2: E200A; E298A: A. oryzae β-galactosidase double variant E200A, E298A (protein, UniProt Q2UCU3 19-1005, looked up, variant E200A E298A)
Beta-galactosidase A: B1 Beta-galactosidase A with E182A, E280A

- oNPG [3]: INACTIVE
B3: D258A: A. oryzae β-galactosidase variant, D258A (protein, UniProt Q2UCU3 19-1005, looked up, variant D258A)
Beta-galactosidase A: B1 Beta-galactosidase A with D240A

- oNPG [3]: INACTIVE
B4: D258A, E298A: A. oryzae β-galactosidase double variant D258A, E298A (protein, UniProt Q2UCU3 19-1005, looked up, variant D258A E298A)
Beta-galactosidase A: B1 Beta-galactosidase A with D240A, E280A

- oNPG [3]: INACTIVE
B5: D258Q: A. oryzae β-galactosidase variant, D258Q (protein, UniProt Q2UCU3 19-1005, looked up, variant D258Q)
Beta-galactosidase A: B1 Beta-galactosidase A with D240Q

- oNPG [3]: 5.2 ± 0.1 mAu/min/mg
B6: E298Q: A. oryzae β-galactosidase variant, E298Q (protein, UniProt Q2UCU3 19-1005, looked up, variant E298Q)
Beta-galactosidase A: B1 Beta-galactosidase A with E280Q
- Initial Rate [1]: 1.82 µmol/min/mg
- Reaction Progress [1]: 89%
- Sia 1 [1]: 48%
- Sia:MogIII [1]: 3.7
- Sia:MogIV [1]: 2.2

- oNPG [3]: INACTIVE
B7: E200Q; E298Q: A. oryzae β-galactosidase double variant E200Q, E298Q (protein, UniProt Q2UCU3 19-1005, looked up, variant E200Q E298Q)
Beta-galactosidase A: B1 Beta-galactosidase A with E182Q, E280Q

- oNPG [3]: 34.6 ± 0.5 mAu/min/mg
B8: E142Q: A. oryzae β-galactosidase variant, E142Q (protein, UniProt Q2UCU3 19-1005, looked up, variant E142Q)
Beta-galactosidase A: B1 Beta-galactosidase A with E124Q
- Initial Rate [1]: 2.05 µmol/min/mg
- Reaction Progress [1]: 88%
- Sia 1 [1]: 43%
- Sia:MogIII [1]: 3.8
- Sia:MogIV [1]: 2.2

B9: S1 RRK 14: RRK loop library variant, positions 204/205/208: NNE (protein, UniProt Q2UCU3 19-1005, looked up, variant G204N C205N V208E)
Beta-galactosidase A: B1 Beta-galactosidase A with G186N, C187N, V190E
- Siamenoside I Substrate Evaluation % Peak Area Siamenoside I Left After 72 hr [4]: 84 % Peak Area
- % Peak Area Siamenoside I [5]: 74 % Peak Area
- Reaction Progress [5]: 75

- oNPG [3]: 34.7 ± 0.4 mAu/min/mg
B10: E804A: A. oryzae β-galactosidase variant, E804A (protein, UniProt Q2UCU3 19-1005, looked up, variant E804A)
Beta-galactosidase A: B1 Beta-galactosidase A with E786A
- Siamenoside I production/yield from mogroside V (in words) [1]: increased ratio of Siamenoside I production; also recorded: increased Siamenoside I yield
- Initial Rate [1]: 3.06 µmol/min/mg
- Reaction Progress [1]: 78%
- Sia 1 [1]: 62%
- Sia:MogIII [1]: 18.6
- Sia:MogIV [1]: 3.3
- effectiveness of Siamenoside I as a substrate in the presence of mogroside V (in words) [6]: reducing the effectiveness of Siamenoside I as a substrate

- oNPG [3]: INACTIVE
B11: E200A: A. oryzae β-galactosidase variant, E200A (protein, UniProt Q2UCU3 19-1005, looked up, variant E200A)
Beta-galactosidase A: B1 Beta-galactosidase A with E182A

- oNPG [3]: 6.3 ± 0.1 mAu/min/mg
B12: E298A: A. oryzae β-galactosidase variant, E298A (protein, UniProt Q2UCU3 19-1005, looked up, variant E298A)
Beta-galactosidase A: B1 Beta-galactosidase A with E280A
- Initial Rate [1]: 2.08 µmol/min/mg
- Reaction Progress [1]: 85%
- Sia 1 [1]: 52%
- Sia:MogIII [1]: 3.5
- Sia:MogIV [1]: 2.1

- Mog III [2]: 17%
- Mog IV [2]: 12%
- Mog V [2]: 22%
- Siam I [2]: 49%
B13: ML: acid lactase/β-Galactosidase enzyme preparation from Aspergillus oryzae expressed in Aspergillus niger (protein, UniProt Q2UCU3 19-1005, looked up)
Beta-galactosidase A: B1 Beta-galactosidase A
modifications: enzyme preparation expressed in Aspergillus niger

B14: S2 RRK 2: RRK loop library variant, positions 204/205/208: GDG (protein, UniProt Q2UCU3 19-1005, looked up, variant C205D V208G)
Beta-galactosidase A: B1 Beta-galactosidase A with C187D, V190G
- Siamenoside I Substrate Evaluation % Peak Area Siamenoside I Left After 72 hr [4]: 78 % Peak Area
- % Peak Area Siamenoside I [5]: 76 % Peak Area
- Reaction Progress [5]: 87
